From patent US20260250769, “METHODS FOR DETERMINING THE PRESENCE OR RISK OF DEVELOPING FACIOSCAPULOHUMERAL DYSTROPHY (FSHD)” (Fred Hutchinson Cancer Center, published 2026)
Positions count from the first letter of the chain named.

How the values were obtained:
DUX4-fl [1] = molecular target: T1, DUX4-fl (Homo sapiens, UniProt Q9UBX2 SEQ:1-424); test: EMSA; cold self competitor inhibits binding; settings: tags: from pCS2-DUX4-fl, TNT SP6 wheat germ extract; label: 32P
Method: (§1) EMSA was performed with ³²P-labeled 31-bp oligonucleotides from endogenous genomic sequences containing the putative DUX4 binding site as probes (sequences below; only forward shown). Radiolabeled probes were incubated with in vitro translated protein generated from pCS2-DUX4-fl or pCS2-DUX4-s² vectors using the TNT SP6 Coupled Wheat Germ Extract System (Promega) according to manufacturer's instructions. To obtain supershift of protein-DNA complexes, 0.1 μg of E14-3 anti-DUX4 rabbit monoclonal antibody was added to the mixtures. For competition experiments, excess unlabeled probes of either wild-type or mutant sequences were included in the binding reaction. The gels were prepared and run as previously described (Knoepfler et al., Nucleic Acids Res 27:3752-3761 (1999)).

DUX4-fl [2] = molecular target: T1, DUX4-fl; test: competition; cold mutant does not compete with THE1D probe; settings: tags: from pCS2-DUX4-fl, TNT SP6 wheat germ extract
Method: as §1

DUX4-s = DUX4-s (Homo sapiens); test: EMSA; supershift with E14-3; settings: tags: from pCS2-DUX4-s2, TNT SP6 wheat germ extract; label: 32P
Method: as §1

DUX4-fl [3] = molecular target: T1, DUX4-fl; test: competition; cold mutant does not compete with CSF1R probe; core printed as … in legend; settings: tags: from pCS2-DUX4-fl, TNT SP6 wheat germ extract
Method: as §1

DUX4-fl [4] = molecular target: T1, DUX4-fl; test: EMSA; supershift with E14-3; cold self competitor reduces binding; settings: tags: from pCS2-DUX4-fl, TNT SP6 wheat germ extract; label: 32P
Method: as §1

DUX4-fl [5] = molecular target: T1, DUX4-fl; test: competition; cold mutant does not compete with TRIM48 probe; settings: tags: from pCS2-DUX4-fl, TNT SP6 wheat germ extract
Method: as §1

T1 sequence (Q9UBX2 whole entry): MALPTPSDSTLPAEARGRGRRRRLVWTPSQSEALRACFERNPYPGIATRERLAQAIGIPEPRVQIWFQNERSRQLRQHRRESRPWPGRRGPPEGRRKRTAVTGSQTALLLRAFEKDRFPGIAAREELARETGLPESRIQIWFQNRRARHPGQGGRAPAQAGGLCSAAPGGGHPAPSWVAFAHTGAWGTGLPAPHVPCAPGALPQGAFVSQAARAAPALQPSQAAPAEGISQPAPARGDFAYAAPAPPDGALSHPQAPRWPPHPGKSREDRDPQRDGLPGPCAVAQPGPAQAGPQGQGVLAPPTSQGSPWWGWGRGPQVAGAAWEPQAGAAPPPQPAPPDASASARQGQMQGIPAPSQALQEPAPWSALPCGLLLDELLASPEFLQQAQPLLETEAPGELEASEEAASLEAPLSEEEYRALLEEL
DUX4-s (Homo sapiens), sequence (Q6RFH8 other isoform, or with tags, fused parts or gaps): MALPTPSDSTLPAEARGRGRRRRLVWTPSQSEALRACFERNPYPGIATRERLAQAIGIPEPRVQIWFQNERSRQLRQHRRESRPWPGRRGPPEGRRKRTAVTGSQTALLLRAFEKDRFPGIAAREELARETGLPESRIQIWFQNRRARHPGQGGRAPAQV

B1: THE1D (dsDNA)
DNA 1: CCTGTGGGAGGTAATCCAATCATGGAGGCAG
DNA 2: CTGCCTCCATGATTGGATTACCTCCCACAGG
binding result (DUX4-fl [1]): binds

B2: THE1Dmut (dsDNA)
DNA 1: B1 DNA 1 with A14C, A18T, C21G
DNA 2: B1 DNA 2 with G11C, T14A, T18G
binding result (DUX4-fl [2]): no binding

B3: CSF1R (dsDNA)
DNA 1: CCAGGTGGAGATAATTGAATCATGGGGGCAG
DNA 2: CTGCCCCCATGATTCAATTATCTCCACCTGG
binding result (DUX4-fl [1]): binds | binding result (DUX4-s): binds

B4: CSF1Rmut (dsDNA)
DNA 1: B3 DNA 1 with A14C, A18T, C21G
DNA 2: B3 DNA 2 with G11C, T14A, T18G
binding result (DUX4-fl [3]): no binding

B5: TRIM48 (dsDNA)
DNA 1: AGGAGTGATGATAATTTAATCAGCCGTGCAA
DNA 2: TTGCACGGCTGATTAAATTATCATCACTCCT
binding result (DUX4-s): binds | binding result (DUX4-fl [4]): binds

B6: TRIM48mut (dsDNA)
DNA 1: B5 DNA 1 with A14C, A18T, C21G
DNA 2: B5 DNA 2 with G11C, T14A, T18G
binding result (DUX4-fl [5]): no binding
